Data published in patent publication US20240189442.

Experiments:
SEQ ID NO: 50 = system: T1, SEQ ID NO: 50
T1 sequence: LSGRSDNH

SEQ ID NO: 51 = system: T2, SEQ ID NO: 51
T2 sequence: SGRSA

SEQ ID NO: 52 = system: T3, SEQ ID NO: 52
T3 sequence: LGGSGRSANAILE

SEQ ID NO: 53 = system: T4, SEQ ID NO: 53
T4 sequence: LGGSGRNAQVRLE

SEQ ID NO: 54 = system: T5, SEQ ID NO: 54
T5 sequence: GSGRNAQV

Sequence of Tissue-type Plasminogen Activator (tPA) (P00750 36-562): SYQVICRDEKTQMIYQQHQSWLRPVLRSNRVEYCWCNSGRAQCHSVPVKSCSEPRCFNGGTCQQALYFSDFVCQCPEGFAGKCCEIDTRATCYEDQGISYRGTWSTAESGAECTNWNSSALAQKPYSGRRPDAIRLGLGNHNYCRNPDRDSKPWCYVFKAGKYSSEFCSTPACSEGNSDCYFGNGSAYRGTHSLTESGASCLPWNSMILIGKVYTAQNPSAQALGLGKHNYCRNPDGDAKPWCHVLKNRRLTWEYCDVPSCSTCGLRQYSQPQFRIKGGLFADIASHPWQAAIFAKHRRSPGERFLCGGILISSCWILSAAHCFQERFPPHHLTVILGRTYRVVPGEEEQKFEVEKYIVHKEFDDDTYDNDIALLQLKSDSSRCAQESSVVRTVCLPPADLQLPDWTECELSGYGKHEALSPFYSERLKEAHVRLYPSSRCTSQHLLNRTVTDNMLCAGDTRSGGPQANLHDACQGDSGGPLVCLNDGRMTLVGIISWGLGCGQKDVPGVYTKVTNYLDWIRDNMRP

Substance | Fold of Increase, fluorescence intensity; tPA digestion at 2.25 × 10^-2 mg/mL (SEQ ID NO: 50) [fold] | Fold of Increase, fluorescence intensity; tPA digestion at 7.5 × 10^-3 mg/mL (SEQ ID NO: 50) [fold] | Fold of Increase, fluorescence intensity; tPA digestion at 2.25 × 10^-2 mg/mL (SEQ ID NO: 51) [fold] | Fold of Increase, fluorescence intensity; tPA digestion at 7.5 × 10^-3 mg/mL (SEQ ID NO: 51) [fold] | Fold of Increase, fluorescence intensity; tPA digestion at 2.25 × 10^-2 mg/mL (SEQ ID NO: 52) [fold] | Fold of Increase, fluorescence intensity; tPA digestion at 7.5 × 10^-3 mg/mL (SEQ ID NO: 52) [fold] | Fold of Increase, fluorescence intensity; tPA digestion at 2.25 × 10^-2 mg/mL (SEQ ID NO: 53) [fold] | Fold of Increase, fluorescence intensity; tPA digestion at 7.5 × 10^-3 mg/mL (SEQ ID NO: 53) [fold] | Fold of Increase, fluorescence intensity; tPA digestion at 2.25 × 10^-2 mg/mL (SEQ ID NO: 54) [fold] | Fold of Increase, fluorescence intensity; tPA digestion at 7.5 × 10^-3 mg/mL (SEQ ID NO: 54) [fold] | Fold of Increase, fluorescence intensity (FRET cleavage assay) (SEQ ID NO: 50) [fold] | Time to Reach Plateau (hr), fluorescence intensity (FRET cleavage assay) (SEQ ID NO: 50) [h] | Fold of Increase, fluorescence intensity (FRET cleavage assay) (SEQ ID NO: 51) [fold] | Time to Reach Plateau (hr), fluorescence intensity (FRET cleavage assay) (SEQ ID NO: 51) [h] | Fold of Increase, fluorescence intensity (FRET cleavage assay) (SEQ ID NO: 52) [fold] | Time to Reach Plateau (hr), fluorescence intensity (FRET cleavage assay) (SEQ ID NO: 52) [h] | Fold of Increase, fluorescence intensity (FRET cleavage assay) (SEQ ID NO: 53) [fold] | Time to Reach Plateau (hr), fluorescence intensity (FRET cleavage assay) (SEQ ID NO: 53) [h] | Fold of Increase, fluorescence intensity (FRET cleavage assay) (SEQ ID NO: 54) [fold] | Time to Reach Plateau (hr), fluorescence intensity (FRET cleavage assay) (SEQ ID NO: 54) [h]
Tissue-type Plasminogen Activator (tPA) | 1.1 | 0.63 | 5.4 | 2.1 | 2.1 | 1.2 | 1.3 | 0.73 | 2.6 | 0.91 |  |  |  |  |  |  |  |  |  | 
Urokinase-type Plasminogen Activator (uPA) |  |  |  |  |  |  |  |  |  |  | 4.9 | 1.7 | 9.6 | 1.8 | 3.1 | 1.4 | 3 | 1.6 | 4.7 | 1.4
